Measured values published in patent US20260167685A1, “NEW MICROPEPTIDE HMBJ AND USE THEREOF” (NANJING ANJI BIOTECHNOLOGY CO., LTD, priority 2023, published 2026).

Assays:
Type in all cases: cell-based
[1] = tested on: human hepatic stellate cells LX-2; assay: inhibitory effect on human liver fibrosis cell model (TGFβ1-stimulated, qPCR); details: LX-2 cells, 10 nmol recombinant human TGFβ1, different concentrations of synthetic micropeptide, co-incubation 24 h, qPCR (FIG. 11)
Description: (§1) Compared with the related art, this application has the following beneficial effects: • (1) This application provides a lncRNA and a nucleotide sequence thereof. Through analysis of sequencing data for multiple organ fibroses, it is discovered that the lncRNA molecule ENSG00000272654 is expressed at a low level in the organ fibroses. […] The lncRNA molecule can be used for diagnosis or auxiliary diagnosis and treatment or auxiliary treatment of organ fibrosis, or can be used in preparation of a reagent for diagnosis or auxiliary diagnosis and treatment or auxiliary treatment of organ fibrosis. • (2) This application provides a nucleotide sequence of an open reading frame of the lncRNA. The nucleotide sequence can code new micropeptide HMBJ. […] Then, the extracted total RNA is reverse-transcribed by using a reverse transcription reagent, and then mRNA expressions of gene Col1a1, TGFβ1, and CTGF in the three organ fibrosis cell models are detected by real-time fluorescence quantification PCR. […]
In this example, inhibitory effect of the micropeptide HMBJ on a human liver fibrosis cell model was detected. […] Then, the cells were resuspended in a complete medium and counted by using a cell counter. […]

[2] = tested on: human non-small cell lung cancer cells A549; assay: inhibitory effect on human pulmonary fibrosis cell model (TGFβ1-stimulated, qPCR); details: 10 nmol recombinant human TGFβ1, different concentrations of synthetic micropeptide, co-incubation 24 h, qPCR (FIG. 13)
Description: as §1
Human non-small cell lung cancer cells A549 were cultured in a cell incubator at 37° C. under 5% CO2 until a cell density was 80% or more. […] Then, the cells were resuspended in a complete medium and counted by using a cell counter. […]

[3] = tested on: human renal proximal tubule cells HK2; assay: inhibitory effect on human renal fibrosis cell model (TGFβ1-stimulated, qPCR); details: 10 nmol recombinant human TGFβ1, different concentrations of synthetic micropeptide, co-incubation 24 h, qPCR (FIG. 12)
Description: as §1
Human renal proximal tubule cells HK2 were cultured in a cell incubator at 37° C. under 5% CO2 until a cell density was 80% or more. […] Then, the cells were resuspended in a complete medium and counted by using a cell counter. […]

Measured: inhibitory effect on mRNA expressions of gene Col1a1, TGFβ1, and CTGF

B1: HMBJ: new human endogenous micropeptide of 71 amino acids (SEQ ID NO. 3) coded by lncRNA ENSG00000272654, made by solid-phase synthesis (peptide, listed as Homo sapiens)
chain: MEAKLRVLVPAETGISETHDEHETFSLSLGSHSATQMNGVTFPHVTLLSLLLRAGPLHNLFKCSQLSLAPT
significant inhibitory effect: [1] | [2] | [3]
